In paper PMC13218722:

Assays:
[1] = target: LFA-1 (CD11a/CD18) on THP-1 cells and primary human NK cells (human (endogenous in THP-1 and primary NK cells)) (UniProt P20701); assay: flow cytometry on cells; THP-1 cells, with or without CD11a siRNA, fixed, incubated with 250 nM GBP130-Fc or 250 nM hIgG control in FACS buffer 2 hr; PE-Texas Red anti-human secondary antibody
[2] = target: LFA-1 (CD11a/CD18) on THP-1 cells and primary human NK cells (human (endogenous in THP-1 and primary NK cells)) (UniProt P20701)
[3] = target: LFA-1 αI-Fc fusion protein (human) (UniProt P20701); assay: BLI; LFA-1 αI immobilised on AR2G (amine reactive) sensor at 100 ng; PfGBP-130-N as analyte at increasing concentrations; 1× PBS pH 7.4; 25°C; 800 s; 1:1 binding model; Octet K2; n≥3
LFA-1 αI-Fc fusion protein (human), sequence (P20701 153-335): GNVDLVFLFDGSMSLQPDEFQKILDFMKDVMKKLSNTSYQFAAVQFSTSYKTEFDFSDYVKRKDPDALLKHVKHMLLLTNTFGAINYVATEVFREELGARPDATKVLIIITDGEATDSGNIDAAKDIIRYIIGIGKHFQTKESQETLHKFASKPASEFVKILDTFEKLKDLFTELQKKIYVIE

LFA-1 (CD11a/CD18) on THP-1 cells and primary human NK cells (human (endogenous in THP-1 and primary NK cells)), sequence (P20701 26-1170, chain 1 of 2): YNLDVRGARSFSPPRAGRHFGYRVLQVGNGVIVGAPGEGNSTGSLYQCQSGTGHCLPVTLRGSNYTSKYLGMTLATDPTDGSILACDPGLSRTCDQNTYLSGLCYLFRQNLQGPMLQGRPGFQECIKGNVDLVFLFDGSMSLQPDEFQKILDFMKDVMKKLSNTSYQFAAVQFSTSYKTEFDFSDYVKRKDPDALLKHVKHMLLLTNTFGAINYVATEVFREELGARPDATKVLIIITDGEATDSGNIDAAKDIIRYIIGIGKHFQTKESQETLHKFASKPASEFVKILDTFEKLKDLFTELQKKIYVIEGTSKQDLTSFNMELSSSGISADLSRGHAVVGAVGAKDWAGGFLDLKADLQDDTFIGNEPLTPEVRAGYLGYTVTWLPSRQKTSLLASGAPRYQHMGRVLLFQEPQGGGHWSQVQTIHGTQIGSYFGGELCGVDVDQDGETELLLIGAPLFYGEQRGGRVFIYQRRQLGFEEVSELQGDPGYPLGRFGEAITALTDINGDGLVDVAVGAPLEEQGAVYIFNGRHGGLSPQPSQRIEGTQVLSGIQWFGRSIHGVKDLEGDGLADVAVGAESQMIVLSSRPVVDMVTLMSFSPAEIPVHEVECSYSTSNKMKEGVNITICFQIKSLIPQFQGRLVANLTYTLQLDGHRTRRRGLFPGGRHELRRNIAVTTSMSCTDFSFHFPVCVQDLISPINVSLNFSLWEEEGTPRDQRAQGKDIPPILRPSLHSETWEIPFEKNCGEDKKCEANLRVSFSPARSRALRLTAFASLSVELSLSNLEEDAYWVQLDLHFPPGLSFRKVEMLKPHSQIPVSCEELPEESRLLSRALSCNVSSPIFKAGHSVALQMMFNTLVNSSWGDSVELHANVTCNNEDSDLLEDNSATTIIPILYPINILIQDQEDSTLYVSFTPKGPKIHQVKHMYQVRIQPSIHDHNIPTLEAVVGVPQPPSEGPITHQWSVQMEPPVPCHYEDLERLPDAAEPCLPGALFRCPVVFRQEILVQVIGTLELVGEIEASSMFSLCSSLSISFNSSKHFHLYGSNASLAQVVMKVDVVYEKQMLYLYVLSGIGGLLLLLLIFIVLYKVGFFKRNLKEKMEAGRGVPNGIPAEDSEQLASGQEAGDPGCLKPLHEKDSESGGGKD
LFA-1 (CD11a/CD18) on THP-1 cells and primary human NK cells (human (endogenous in THP-1 and primary NK cells)), sequence (P05107 23-769, chain 2 of 2, further chain): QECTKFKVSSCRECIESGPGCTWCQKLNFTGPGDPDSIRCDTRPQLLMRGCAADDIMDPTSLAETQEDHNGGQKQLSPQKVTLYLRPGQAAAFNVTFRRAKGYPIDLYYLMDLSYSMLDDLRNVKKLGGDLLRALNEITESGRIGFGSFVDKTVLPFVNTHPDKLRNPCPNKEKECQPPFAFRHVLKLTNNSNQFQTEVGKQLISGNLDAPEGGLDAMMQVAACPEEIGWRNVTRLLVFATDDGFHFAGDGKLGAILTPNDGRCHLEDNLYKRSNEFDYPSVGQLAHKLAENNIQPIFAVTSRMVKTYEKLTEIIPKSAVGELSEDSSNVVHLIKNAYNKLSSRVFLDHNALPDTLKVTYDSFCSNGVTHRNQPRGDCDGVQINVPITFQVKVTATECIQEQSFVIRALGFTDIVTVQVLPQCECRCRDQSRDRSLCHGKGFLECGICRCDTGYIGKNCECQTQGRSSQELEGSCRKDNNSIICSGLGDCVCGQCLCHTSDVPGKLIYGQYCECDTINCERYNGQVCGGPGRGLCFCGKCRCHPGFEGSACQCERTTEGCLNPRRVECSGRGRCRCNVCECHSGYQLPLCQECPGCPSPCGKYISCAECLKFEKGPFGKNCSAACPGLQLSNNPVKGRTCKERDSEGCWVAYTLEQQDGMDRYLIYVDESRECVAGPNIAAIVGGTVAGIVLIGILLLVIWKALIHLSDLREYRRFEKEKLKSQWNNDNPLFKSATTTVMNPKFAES
PfGBP-130-N (N-terminal fragment of PfGBP-130, aa 69-270) (domain or fragment), sequence (Q8I6U8 69-270): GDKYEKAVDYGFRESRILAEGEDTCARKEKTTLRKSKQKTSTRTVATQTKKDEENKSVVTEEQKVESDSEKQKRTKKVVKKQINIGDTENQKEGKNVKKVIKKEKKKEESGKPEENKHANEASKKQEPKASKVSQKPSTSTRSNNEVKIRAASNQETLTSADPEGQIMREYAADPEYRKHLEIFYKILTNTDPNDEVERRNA

PfGBP-130 ECD-Fc (extracellular domain of PfGBP-130 fused to the Fc region of human IgG1) (Fc fusion)
fold increase in binding over hIgG isotype control (THP-1 cells) [1]: 3 fold

PfGBP-130 extracellular domain fused to the transmembrane domain of transferrin receptor (TfR-TM), on CHO K1 cells
CD25 expression on primary human NK cells co-cultured 24 hr with CHO-PfGBP-ECD (2:1, Poly I:C/Lipofectamine 2000) compared to mock CHO cells, flow cytometry; reduced by anti-CD11a (HI111) [2]: 40%
CD69 expression on primary human NK cells co-cultured 24 hr with CHO-PfGBP-ECD (2:1, Poly I:C/Lipofectamine 2000) compared to mock CHO cells, flow cytometry; reduced by anti-CD11a (HI111) [2]: 50%

PfGBP-130-N (N-terminal fragment of PfGBP-130, aa 69-270) (domain or fragment)
Kd [3]: 0.017 µM
